Values of other authors as cited in paper PMC8431939.

Biological target: CD112 (Homo sapiens) (UniProt Q92692)
Assay: SPR

Sequence of UniProt Q92692 (Q92692 32-538): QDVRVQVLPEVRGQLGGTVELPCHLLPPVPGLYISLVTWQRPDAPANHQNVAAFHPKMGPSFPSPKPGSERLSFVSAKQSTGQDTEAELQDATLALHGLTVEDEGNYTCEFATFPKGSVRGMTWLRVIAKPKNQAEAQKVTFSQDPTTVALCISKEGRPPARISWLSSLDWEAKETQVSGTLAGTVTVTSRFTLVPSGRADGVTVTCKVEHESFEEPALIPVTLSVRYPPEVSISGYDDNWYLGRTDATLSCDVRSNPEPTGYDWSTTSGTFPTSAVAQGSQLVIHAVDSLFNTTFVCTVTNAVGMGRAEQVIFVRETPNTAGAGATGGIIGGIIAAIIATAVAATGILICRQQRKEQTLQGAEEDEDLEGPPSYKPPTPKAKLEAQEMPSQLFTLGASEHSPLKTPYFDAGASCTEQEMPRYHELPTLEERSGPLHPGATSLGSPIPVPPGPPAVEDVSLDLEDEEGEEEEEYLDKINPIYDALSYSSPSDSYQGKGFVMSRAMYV

Kd: 88 nM
Substance: CD112R (from UniProt Q6DKI7)
